# Source: patent US20200024330A1
# Key:
# Experiment in all cases: cell-based or functional assay
# [1] = target: HIV-1 92BR020 envelope protein (Env) on pseudovirus (HIV-1)
# [2] = target: HIV-1 92UG037 envelope glycoprotein (Env) (HIV-1)
# [3] = target: HIV-1 93UG077 envelope glycoprotein (Env) (HIV-1)
# [4] = target: HIV-1 98CN006 envelope glycoprotein (Env) on pseudovirus (HIV-1)
# [5] = target: HIV-1 Env of isolate 92UG046 (clade D) (HIV-1)
# [6] = target: HIV-1 Env of pseudovirus TRO.11 (Acute), clade B (HIV-1)
# [7] = target: HIV-1 LAVIC_18 Env (HIV-1)
# [8] = target: HIV-1 MGRM-A-012 envelope glycoprotein (Env) (HIV-1)
# [9] = target: HIV-1 MGRM-A-014 envelope glycoprotein (Env) (HIV-1)
# [10] = target: HIV-1 MGRM-C-006 Env (HIV-1)
# [11] = target: HIV-1 MGRM-F1-010 Env (pseudovirus) (HIV-1)
# [12] = target: HIV-1 Env of isolate MGRM-G-009 (subtype G) (HIV-1)
# [13] = target: HIV-1 Env of isolate MGRM-G-011 (subtype G) (HIV-1)
# [14] = target: HIV-1 Env of isolate MGRM-G-019 (subtype G) (HIV-1)
# [15] = target: HIV-1 93IN905 Env (pseudovirus) (HIV-1)
# [16] = target: HIV-1 93TH305 Env (pseudovirus) (HIV-1)
# [17] = target: HIV-1 CAAN.A2 Env (pseudovirus) (HIV-1)
# [18] = target: HIV-1 Env of isolate 97ZA012 (pseudovirus) (HIV-1 isolate 97ZA012, subtype C)
# [19] = target: HIV-1 Env of isolate MG RM-AG-009 (HIV-1)
# [20] = target: HIV-1 Env of isolate MG RM-D-019 (subtype D) (HIV-1)
# [21] = target: HIV-1 Env of isolate MGRM-C-005 (pseudovirus) (HIV-1 isolate MGRM-C-005, subtype C)
# [22] = target: HIV-1 Env of isolate MGRM-C-012 (pseudovirus) (HIV-1 isolate MGRM-C-012, subtype C)
# [23] = target: HIV-1 Env of isolate MGRM-C-023 (pseudovirus) (HIV-1 isolate MGRM-C-023, subtype C)
# [24] = target: HIV-1 JR-CSF Env G471A (HIV-1 (isolate JR-CSF)) (UniProt P20871)
# [25] = target: HIV-1 JR-CSF Env L125A (HIV-1 (isolate JR-CSF)) (UniProt P20871)
# [26] = target: HIV-1 JR-CSF Env L179A (HIV-1 (isolate JR-CSF)) (UniProt P20871)
# [27] = target: HIV-1 JR-CSF Env N134A (HIV-1 (isolate JR-CSF)) (UniProt P20871)
# [28] = target: HIV-1 JR-CSF Env N478A (HIV-1 (isolate JR-CSF)) (UniProt P20871)
# [29] = target: HIV-1 MGRM-Chronic-B-004 Env (pseudovirus) (HIV-1)
# [30] = target: HIV-1 MGRM-Chronic-B-011 Env (pseudovirus) (HIV-1)
# [31] = target: HIV-1 MGRM-Chronic-B-017 Env (pseudovirus) (HIV-1)
# [32] = target: HIV-1 VLGCB3 Env (pseudovirus) (HIV-1)
# [33] = target: HIV-1 Env of isolate 93IN905 (HIV-1)
# [34] = target: HIV-1 Env of isolate CAAN.A2 (HIV-1)
# [35] = target: HIV-1 Env of isolate NL43 (HIV-1)
# [36] = target: HIV-1 MGRM-A-010 envelope glycoprotein (Env) on pseudovirus (HIV-1)
# [37] = target: HIV-1 MGRM-C-026 envelope glycoprotein (Env) on pseudovirus (HIV-1)
substance,measurement,setting,value
b12 (antibody),neutralization IC50,[1],27.5 µg/mL
same,"IC50 (µg/ml), pseudovirus neutralization",[2],> 50 µg/mL
same,"IC50 (µg/ml), pseudovirus neutralization",[3],47 µg/mL
same,"IC50 (µg/ml), pseudovirus neutralization",[4],> 50 µg/mL
same,"IC50 (µg/ml), pseudovirus neutralization",[5],0.07 µg/mL
same,"IC50 (µg/ml), pseudovirus neutralization",[6],> 50 µg/mL
same,IC50,[7],> 50 µg/mL
same,"IC50 (µg/ml), pseudovirus neutralization",[8],> 50 µg/mL
same,"IC50 (µg/ml), pseudovirus neutralization",[9],> 50 µg/mL
same,IC50,[10],> 50 µg/mL
same,"IC50 (µg/ml), pseudovirus neutralization",[11],> 50 µg/mL
PGT-143 (4980_N08) (antibody),neutralization IC50,[12],2.97 µg/mL
same,neutralization IC50,[13],0.074 µg/mL
same,neutralization IC50,[14],4.77 µg/mL
5145_B14 (PGT-127) (antibody),"IC50, pseudovirus neutralization",[15],0.024 µg/mL
same,"IC50, pseudovirus neutralization",[16],0.017 µg/mL
same,"IC50, pseudovirus neutralization",[17],0.371 µg/mL
same,IC50 (µg/mL) neutralization,[18],> 50 µg/mL
same,neutralization IC50,[19],0.059 µg/mL
same,"IC50 (µg/mL), pseudovirus neutralization",[20],> 50 µg/mL
same,IC50 (µg/mL) neutralization,[21],0.57 µg/mL
same,IC50 (µg/mL) neutralization,[22],1.07 µg/mL
same,IC50 (µg/mL) neutralization,[23],1.08 µg/mL
same,Fold IC50 increase relative to wild-type,[24],1.2 fold
same,Fold IC50 increase relative to wild-type,[25],1.4 fold
same,Fold IC50 increase relative to wild-type,[26],2.5 fold
same,Fold IC50 increase relative to wild-type,[27],1 fold
same,Fold IC50 increase relative to wild-type,[28],1.2 fold
same,"IC50, pseudovirus neutralization",[29],0.018 µg/mL
same,"IC50, pseudovirus neutralization",[30],0.297 µg/mL
same,"IC50, pseudovirus neutralization",[31],> 50 µg/mL
same,"IC50, pseudovirus neutralization",[32],0.022 µg/mL
VRC01 (antibody),neutralization IC50,[33],0.138 µg/mL
same,IC50,[34],0.722 µg/mL
same,neutralization IC50,[12],0.073 µg/mL
same,neutralization IC50,[13],0.065 µg/mL
same,neutralization IC50,[14],0.06 µg/mL
same,neutralization IC50,[35],0.1 µg/mL
PGV04 (antibody),neutralization IC50,[12],0.043 µg/mL
same,neutralization IC50,[13],0.78 µg/mL
same,neutralization IC50,[14],0.027 µg/mL
4E10 (antibody),neutralization IC50,[1],41.4 µg/mL
same,"IC50 (µg/ml), pseudovirus neutralization",[2],8.84 µg/mL
same,"IC50 (µg/ml), pseudovirus neutralization",[3],10.6 µg/mL
same,"IC50 (µg/ml), pseudovirus neutralization",[4],1.91 µg/mL
same,"IC50 (µg/ml), pseudovirus neutralization",[5],12.2 µg/mL
same,"IC50 (µg/ml), pseudovirus neutralization",[6],1.39 µg/mL
same,IC50,[7],> 50 µg/mL
same,"IC50 (µg/ml), pseudovirus neutralization",[8],4.27 µg/mL
same,"IC50 (µg/ml), pseudovirus neutralization",[9],1.74 µg/mL
same,IC50,[10],4.94 µg/mL
same,"IC50 (µg/ml), pseudovirus neutralization",[11],3.69 µg/mL
PGT-144 (4970_K22) (antibody),neutralization IC50,[12],> 50 µg/mL
same,neutralization IC50,[13],1.58 µg/mL
same,neutralization IC50,[14],> 50 µg/mL
1496_C09 (PG9) (TCN-109) (antibody),"IC50 (µg/ml), pseudovirus neutralization",[5],0.64 µg/mL
same,neutralization IC50,[12],10.7 µg/mL
same,neutralization IC50,[13],0.335 µg/mL
same,neutralization IC50,[14],14.6 µg/mL
same,"IC50 (µg/ml), pseudovirus neutralization",[6],5.43 µg/mL
same,IC50,[7],0.1 µg/mL
same,"IC50 (ug/ml), neutralizing activity",[36],0.0375 µg/mL
same,IC50 neutralization,[36],0.0375 µg/mL
same,"IC80, neutralization",[36],0.121 µg/mL
same,"IC90, neutralization",[36],0.242 µg/mL
same,"IC95, neutralization",[36],0.456 µg/mL
same,"IC50 (µg/ml), pseudovirus neutralization",[8],11.2 µg/mL
same,"IC50 (µg/ml), pseudovirus neutralization",[9],0.62 µg/mL
same,IC50,[10],0.23 µg/mL
same,"IC50 (ug/ml), neutralizing activity",[37],0.113 µg/mL
same,IC50 neutralization,[37],0.113 µg/mL
same,"IC50 (µg/ml), pseudovirus neutralization",[11],0.03 µg/mL
4858_P08 (PGT-123) (antibody),"IC50, pseudovirus neutralization",[15],0.004 µg/mL
same,"IC50, pseudovirus neutralization",[16],0.008 µg/mL
same,"IC50, pseudovirus neutralization",[17],0.015 µg/mL
same,IC50 (µg/mL) neutralization,[18],0.002 µg/mL
same,neutralization IC50,[19],0.073 µg/mL
same,"IC50 (µg/mL), pseudovirus neutralization",[20],> 50 µg/mL
same,IC50 (µg/mL) neutralization,[21],0.012 µg/mL
same,IC50 (µg/mL) neutralization,[22],0.605 µg/mL
same,IC50 (µg/mL) neutralization,[23],0.011 µg/mL
same,Fold IC50 increase relative to wild-type,[24],1.3 fold
same,Fold IC50 increase relative to wild-type,[25],2.5 fold
same,Fold IC50 increase relative to wild-type,[26],1.2 fold
same,Fold IC50 increase relative to wild-type,[27],0.4 fold
same,Fold IC50 increase relative to wild-type,[28],0.6 fold
same,"IC50 (ug/ml), neutralizing activity",[36],0.492 µg/mL
same,"IC50, pseudovirus neutralization",[36],0.492 µg/mL
same,"IC80, pseudovirus neutralization",[36],2.79 µg/mL
same,IC90 (pseudovirus neutralization),[36],6.44 µg/mL
same,"IC95, pseudovirus neutralization",[36],> 10 µg/mL
same,"IC50 (ug/ml), neutralizing activity",[37],0.0031 µg/mL
same,"IC50, pseudovirus neutralization",[37],0.0031 µg/mL
same,"IC80, pseudovirus neutralization",[37],0.0094 µg/mL
same,IC90 (pseudovirus neutralization),[37],0.0183 µg/mL
same,"IC95, pseudovirus neutralization",[37],0.0338 µg/mL
same,"IC50, pseudovirus neutralization",[29],0.008 µg/mL
same,"IC50, pseudovirus neutralization",[30],> 50 µg/mL
same,"IC50, pseudovirus neutralization",[31],> 50 µg/mL
same,"IC50, pseudovirus neutralization",[32],0.004 µg/mL
